Assay results published in paper PMC3352095, “Structure and function of FusB: an elongation factor G-binding fusidic acid resistance protein active in ribosomal translocation and recycling” (Open Biology, 2012).

Tests used:
S. aureus EF-G = molecular target: T1, S. aureus EF-G (Staphylococcus aureus, UniProt P68790); assay: tripeptide (fMet-Phe-Phe) formation, quenched at […] s, HPLC; format: biochemical
T1 construct: gene fusA; full-length wild type, recombinant; assayed on E. coli 70S ribosomes with E. coli translation factors

[1] = molecular target: S. aureus elongation factor G (S. aureus) (UniProt P68790); assay: SEC; 2 nmol EF-G (wild-type or hybrid) with or without 4 nmol FusB (twofold excess) in 100 µl gel filtration buffer (20 mM Tris pH 7.8, 300 mM NaCl) on Superdex200 10/300; shift in elution volume of the EF-G peak as read-out; hybrid G also with 2.5-fold excess of FusB
[2] = molecular target: S. aureus elongation factor G (S. aureus) (UniProt P68790)
[3] = molecular target: S. aureus elongation factor G (S. aureus) (UniProt P68790); remark: listed apart in the source
[4] = molecular target: S. aureus elongation factor G (S. aureus) (UniProt P68790); remark: listed apart in the source

Compound | inhibition at 150 µM (S. aureus EF-G) [%] | stoichiometry N [1] | rate of splitting of the post-termination complex by S. aureus EF-G and RRF (Rayleigh light scattering) with FA 10 µM and FusB 1 µM (0.15 s^-1 without FA; blocked with FA alone) [2] [s⁻¹] | multiple- and single-round luciferase synthesis in a reconstituted E. coli transcription-translation system with S. aureus EF-G, FA 20 µM, FusB 1 µM; increase against the reactions with only FA [3] [fold] | extent of tripeptide formation in 10 s with S. aureus EF-G, FA 150 µM (50 per cent with FA alone), FusB 1 µM [4] [per cent]
CC(=O)O[C@H]1C[C@@]2(C)[C@@H](C[C@@H](O)[C@H]3[C@@]4(C)CC[C@@H](O)[C@@H](C)[C@@H]4CC[C@@]32C)/C1=C(\CCC=C(C)C)C(=O)O [FA, fusidic acid] | 50 | – | – | – | –
FusB (natural protein) | – | 1 | 0.02 | < 5 | 75
